{"source": "the Human Domainome abundance scans (Beltran et al. 2025)", "note": "± gives the uncertainty stated by the source."}
{"assay": "abundance fitness (aPCA) (normalised: wild type 0, dead -1); higher = more abundant; growth selection in yeast, the domain comes from the species named", "details": "Homo sapiens"}
{"substance": "Scaffold attachment factor B1 E76I, Q15424", "abundance fitness": "-0.291 ± 0.093"}
{"substance": "Scaffold attachment factor B1 R29L, Q15424", "abundance fitness": "-0.134 ± 0.048"}
{"substance": "Scaffold attachment factor B1 I37L, Q15424", "abundance fitness": "-0.124 ± 0.056"}
{"substance": "Scaffold attachment factor B1 R35E, Q15424", "abundance fitness": "-0.195 ± 0.083"}
{"substance": "Scaffold attachment factor B1 M58W, Q15424", "abundance fitness": "-0.439 ± 0.069"}
{"substance": "Scaffold attachment factor B1 E76Y, Q15424", "abundance fitness": "-0.175 ± 0.056"}
{"substance": "Scaffold attachment factor B1 S55L, Q15424", "abundance fitness": "-0.147 ± 0.049"}
{"substance": "Scaffold attachment factor B1 L34A, Q15424", "abundance fitness": "-0.482 ± 0.064"}
{"substance": "Scaffold attachment factor B1 D33V, Q15424", "abundance fitness": "-0.493 ± 0.054"}
{"substance": "Scaffold attachment factor B1 E59N, Q15424", "abundance fitness": "-0.131 ± 0.065"}
{"substance": "Scaffold attachment factor B1 P72H, Q15424", "abundance fitness": "-0.149 ± 0.073"}
{"substance": "Scaffold attachment factor B1 P72T, Q15424", "abundance fitness": "-0.329 ± 0.085"}
{"substance": "Scaffold attachment factor B1 L39Q, Q15424", "abundance fitness": "-0.764 ± 0.072"}
{"substance": "Scaffold attachment factor B1 R44V, Q15424", "abundance fitness": "-0.092 ± 0.054"}
{"substance": "Scaffold attachment factor B1 R30H, Q15424", "abundance fitness": "-0.16 ± 0.063"}
{"substance": "Scaffold attachment factor B1 V56M, Q15424", "abundance fitness": "-0.16 ± 0.07"}
{"substance": "Scaffold attachment factor B1 S50I, Q15424", "abundance fitness": "-0.292 ± 0.096"}
{"substance": "Scaffold attachment factor B1 K54T, Q15424", "abundance fitness": "-0.189 ± 0.057"}
{"substance": "Scaffold attachment factor B1 S50G, Q15424", "abundance fitness": "-0.257 ± 0.063"}
{"substance": "Scaffold attachment factor B1 K62T, Q15424", "abundance fitness": "-0.212 ± 0.072"}
{"substance": "Scaffold attachment factor B1 L43F, Q15424", "abundance fitness": "-1.21 ± 0.073"}
{"substance": "Scaffold attachment factor B1 N71C, Q15424", "abundance fitness": "-0.207 ± 0.07"}
{"substance": "Scaffold attachment factor B1 T28M, Q15424", "abundance fitness": "-0.234 ± 0.083"}
{"substance": "Scaffold attachment factor B1 S32T, Q15424", "abundance fitness": "-0.217 ± 0.089"}
{"substance": "Scaffold attachment factor B1 G27V, Q15424", "abundance fitness": "-0.1 ± 0.048"}
{"substance": "Scaffold attachment factor B1 G69R, Q15424", "abundance fitness": "-0.25 ± 0.06"}
{"substance": "Scaffold attachment factor B1 I37N, Q15424", "abundance fitness": "-0.25 ± 0.078"}
{"substance": "Scaffold attachment factor B1 R46H, Q15424", "abundance fitness": "-0.423 ± 0.12"}
{"substance": "Scaffold attachment factor B1 A64Y, Q15424", "abundance fitness": "-0.519 ± 0.12"}
{"substance": "Scaffold attachment factor B1 D67N, Q15424", "abundance fitness": "-0.125 ± 0.091"}
{"substance": "Scaffold attachment factor B1 L57V, Q15424", "abundance fitness": "-0.417 ± 0.065"}
{"substance": "Scaffold attachment factor B1 T28W, Q15424", "abundance fitness": "-0.455 ± 0.088"}
{"substance": "Scaffold attachment factor B1 D73W, Q15424", "abundance fitness": "-0.513 ± 0.056"}
{"substance": "Scaffold attachment factor B1 K63A, Q15424", "abundance fitness": "-0.202 ± 0.053"}
{"substance": "Scaffold attachment factor B1 G27W, Q15424", "abundance fitness": "-0.559 ± 0.057"}
{"substance": "Scaffold attachment factor B1 N53Q, Q15424", "abundance fitness": "-0.288 ± 0.089"}
{"substance": "Scaffold attachment factor B1 R60K, Q15424", "abundance fitness": "-0.099 ± 0.065"}
{"substance": "Scaffold attachment factor B1 T78I, Q15424", "abundance fitness": "-0.17 ± 0.069"}
{"substance": "Scaffold attachment factor B1 N71Q, Q15424", "abundance fitness": "-0.263 ± 0.095"}
{"substance": "Scaffold attachment factor B1 A41I, Q15424", "abundance fitness": "-0.114 ± 0.073"}
{"substance": "Scaffold attachment factor B1 E59F, Q15424", "abundance fitness": "-0.637 ± 0.071"}
{"substance": "Scaffold attachment factor B1 N71A, Q15424", "abundance fitness": "-0.329 ± 0.071"}
{"substance": "Scaffold attachment factor B1 S55N, Q15424", "abundance fitness": "-0.13 ± 0.08"}
{"substance": "Scaffold attachment factor B1 S79V, Q15424", "abundance fitness": "-0.131 ± 0.06"}
{"substance": "Scaffold attachment factor B1 R44L, Q15424", "abundance fitness": "-0.107 ± 0.053"}
{"substance": "Scaffold attachment factor B1 R44H, Q15424", "abundance fitness": "-0.202 ± 0.072"}
{"substance": "Scaffold attachment factor B1 V48P, Q15424", "abundance fitness": "-0.691 ± 0.091"}
{"substance": "Scaffold attachment factor B1 S32K, Q15424", "abundance fitness": "-0.173 ± 0.088"}
{"substance": "Scaffold attachment factor B1 E66C, Q15424", "abundance fitness": "-0.284 ± 0.069"}
{"substance": "Scaffold attachment factor B1 R60Y, Q15424", "abundance fitness": "-0.642 ± 0.11"}
{"substance": "Scaffold attachment factor B1 G52I, Q15424", "abundance fitness": "-1.72 ± 0.32"}
{"substance": "Scaffold attachment factor B1 D38N, Q15424", "abundance fitness": "-0.414 ± 0.092"}
{"substance": "Scaffold attachment factor B1 P72G, Q15424", "abundance fitness": "-0.11 ± 0.048"}
{"substance": "Scaffold attachment factor B1 L31H, Q15424", "abundance fitness": "-0.575 ± 0.072"}
{"substance": "Scaffold attachment factor B1 N71S, Q15424", "abundance fitness": "-0.19 ± 0.063"}
{"substance": "Scaffold attachment factor B1 E76C, Q15424", "abundance fitness": "-0.113 ± 0.054"}
{"substance": "Scaffold attachment factor B1 D67W, Q15424", "abundance fitness": "-0.474 ± 0.048"}
{"substance": "Scaffold attachment factor B1 N47C, Q15424", "abundance fitness": "-0.274 ± 0.073"}
{"substance": "Scaffold attachment factor B1 K54V, Q15424", "abundance fitness": "-0.221 ± 0.049"}
{"substance": "Scaffold attachment factor B1 G52M, Q15424", "abundance fitness": "-1.21 ± 0.077"}
{"substance": "Scaffold attachment factor B1 R29V, Q15424", "abundance fitness": "-0.08 ± 0.059"}
{"substance": "Scaffold attachment factor B1 D33I, Q15424", "abundance fitness": "-0.88 ± 0.12"}
{"substance": "Scaffold attachment factor B1 E74K, Q15424", "abundance fitness": "-0.213 ± 0.089"}
{"substance": "Scaffold attachment factor B1 S55D, Q15424", "abundance fitness": "-0.187 ± 0.082"}
{"substance": "Scaffold attachment factor B1 I77P, Q15424", "abundance fitness": "-0.381 ± 0.096"}
{"substance": "Scaffold attachment factor B1 D49L, Q15424", "abundance fitness": "-0.393 ± 0.061"}
{"substance": "Scaffold attachment factor B1 L34S, Q15424", "abundance fitness": "-0.433 ± 0.065"}
{"substance": "Scaffold attachment factor B1 D49V, Q15424", "abundance fitness": "-0.408 ± 0.057"}
{"substance": "Scaffold attachment factor B1 R40T, Q15424", "abundance fitness": "-0.319 ± 0.073"}
{"substance": "Scaffold attachment factor B1 N53S, Q15424", "abundance fitness": "-0.085 ± 0.051"}
{"substance": "Scaffold attachment factor B1 M58D, Q15424", "abundance fitness": "-0.582 ± 0.078"}
{"substance": "Scaffold attachment factor B1 N71M, Q15424", "abundance fitness": "-0.3 ± 0.057"}
{"substance": "Scaffold attachment factor B1 D73F, Q15424", "abundance fitness": "-0.494 ± 0.085"}
{"substance": "Scaffold attachment factor B1 N47Q, Q15424", "abundance fitness": "-0.227 ± 0.067"}
{"substance": "Scaffold attachment factor B1 E74T, Q15424", "abundance fitness": "-0.183 ± 0.083"}
{"substance": "Scaffold attachment factor B1 D73K, Q15424", "abundance fitness": "-0.652 ± 0.12"}
{"substance": "Scaffold attachment factor B1 A64Q, Q15424", "abundance fitness": "-0.162 ± 0.086"}
{"substance": "Scaffold attachment factor B1 G69N, Q15424", "abundance fitness": "-0.248 ± 0.099"}
{"substance": "Scaffold attachment factor B1 I77Q, Q15424", "abundance fitness": "-0.262 ± 0.077"}
{"substance": "Scaffold attachment factor B1 R30L, Q15424", "abundance fitness": "-0.218 ± 0.051"}
{"substance": "Scaffold attachment factor B1 G69V, Q15424", "abundance fitness": "-0.454 ± 0.079"}
{"substance": "Scaffold attachment factor B1 N71F, Q15424", "abundance fitness": "-0.338 ± 0.068"}
{"substance": "Scaffold attachment factor B1 E80D, Q15424", "abundance fitness": "-0.323 ± 0.14"}
{"substance": "Scaffold attachment factor B1 V36F, Q15424", "abundance fitness": "-0.279 ± 0.084"}
{"substance": "Scaffold attachment factor B1 I37D, Q15424", "abundance fitness": "-0.175 ± 0.075"}
{"substance": "Scaffold attachment factor B1 L34W, Q15424", "abundance fitness": "-0.375 ± 0.075"}
{"substance": "Scaffold attachment factor B1 S32N, Q15424", "abundance fitness": "-0.59 ± 0.1"}
{"substance": "Scaffold attachment factor B1 G52V, Q15424", "abundance fitness": "-0.978 ± 0.059"}
{"substance": "Scaffold attachment factor B1 T28V, Q15424", "abundance fitness": "-0.229 ± 0.056"}
{"substance": "Scaffold attachment factor B1 G27L, Q15424", "abundance fitness": "-0.191 ± 0.057"}
{"substance": "Scaffold attachment factor B1 K62Y, Q15424", "abundance fitness": "-0.285 ± 0.087"}
{"substance": "Scaffold attachment factor B1 R35V, Q15424", "abundance fitness": "-0.28 ± 0.054"}
{"substance": "Scaffold attachment factor B1 E74M, Q15424", "abundance fitness": "-0.119 ± 0.068"}
{"substance": "Scaffold attachment factor B1 R30C, Q15424", "abundance fitness": "-0.409 ± 0.1"}
{"substance": "Scaffold attachment factor B1 R29F, Q15424", "abundance fitness": "-0.03 ± 0.06"}
{"substance": "Scaffold attachment factor B1 E76P, Q15424", "abundance fitness": "-0.069 ± 0.083"}
{"substance": "Scaffold attachment factor B1 R30P, Q15424", "abundance fitness": "-0.545 ± 0.094"}
{"substance": "Scaffold attachment factor B1 L31Q, Q15424", "abundance fitness": "-0.623 ± 0.08"}
{"substance": "Scaffold attachment factor B1 S50P, Q15424", "abundance fitness": "-0.191 ± 0.058"}
{"substance": "Scaffold attachment factor B1 D38E, Q15424", "abundance fitness": "-0.095 ± 0.059"}
{"substance": "Scaffold attachment factor B1 S32P, Q15424", "abundance fitness": "-0.514 ± 0.083"}
{"substance": "Scaffold attachment factor B1 V48H, Q15424", "abundance fitness": "-0.125 ± 0.08"}
{"substance": "Scaffold attachment factor B1 K63Y, Q15424", "abundance fitness": "-0.42 ± 0.067"}
{"substance": "Scaffold attachment factor B1 E68C, Q15424", "abundance fitness": "-0.586 ± 0.056"}
{"substance": "Scaffold attachment factor B1 G69Y, Q15424", "abundance fitness": "-0.819 ± 0.19"}
{"substance": "Scaffold attachment factor B1 N47L, Q15424", "abundance fitness": "-0.365 ± 0.061"}
{"substance": "Scaffold attachment factor B1 D38L, Q15424", "abundance fitness": "-0.683 ± 0.055"}
{"substance": "Scaffold attachment factor B1 V56N, Q15424", "abundance fitness": "-0.169 ± 0.064"}
{"substance": "Scaffold attachment factor B1 D49Q, Q15424", "abundance fitness": "-0.328 ± 0.072"}
{"substance": "Scaffold attachment factor B1 K62M, Q15424", "abundance fitness": "-0.254 ± 0.078"}
